In general, EC50 refers to the concentration that produces a half-maximal response.

Our source for the EC50 values is patent publication US20180362632A1 (published 2018).

For assay [1], the target named is T1, recombinant human GM-CSF protein (human, UniProt P04141 18-144). The experiment in a line: ELISA. For orientation: ELISA stands for enzyme-linked immunosorbent assay.
Assay [2] addresses T1, recombinant human GM-CSF protein. The experiment in a line: ELISA. The source holds these as a separate data set.

Numbering of substitutions follows the chain as printed. Values joined by “and” are separate entries in the source; they are usually repeats but may differ in a detail not shown here. Identical values can stand only once. Like-named read-outs stand apart in the source and are kept apart here.

T1 sequence (P04141 18-144): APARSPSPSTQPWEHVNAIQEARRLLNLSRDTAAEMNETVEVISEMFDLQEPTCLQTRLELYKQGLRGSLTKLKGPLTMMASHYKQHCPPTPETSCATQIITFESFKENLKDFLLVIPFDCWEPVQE

B1: Hu23F4-18 (antibody, V domains shown)
VH: EVQLVQSGAEVKKPGATVKISCKVSDYTLTSHYLHWVQQAPGKGLEWIGWIFPGDDKTKYNEKFKGRATLTSDTSTDTAYMELSSLRSEDTAVYYCARGTKYLNWNFDVWGQGTTVTVSS
VL: DIQLTQSPSFLSASVGDRVTITCKANQNVGTTLAWYQQKPGKAPKALIYSASYRYSGVPSRFSGSGSGTEFTLTISSLQPEDFATYYCHQYTTYPLTFGGGTKVEIK
In the case of B1, the EC50 in assay [1] is 0.0585 nM.

B2: Hu23F4-19 (antibody, V domains shown)
VH: B1 VH
VL: B1 VL with S60D, E70D
Turning to B2, the EC50 in assay [1] was 0.0787 nM.

B3: Hu23F4-4 (antibody, V domains shown)
VH: B1 VH with D26G, L29F, I48M, A68V, L70I, S72A
VL: B1 VL with A43S, S60D, E70D, Y87F
Regarding B3, in assay [1], the EC50 amounted to 0.0623 nM.

B4: Hu23F4-22 (antibody, V domains shown)
VH: EVQLVQSGAEVKKPGASVKVSCKASGYTFTSHYLHWVRQAPGQGLEWMGWIFPGDDKTKYNEKFKGRVTMTRDTSISTAYMELSRLRSDDTAVYYCARGTKYLNWNFDVWGQGTTVTVSS
VL: B1 VL with S60D, E70D
With B4, the 50% effective concentration (EC50) in assay [1] worked out at 0.059 nM.

B5: Hu23F4-21 (antibody, V domains shown)
VH: B4 VH
VL: B1 VL
As for B5, in assay [1], the EC50 stood at 0.151 nM.

B6: Hu23F4-8 (antibody, V domains shown)
VH: B1 VH with D26G, L29F, I48M, A68V, L70I
VL: B1 VL with A43S, S60D, E70D, Y87F
Take B6: the EC50 in assay [1] was 0.0484 nM.

B7: Hu23F4-25 (antibody, V domains shown)
VH: B4 VH with R72S
VL: B1 VL
As to B7, the EC50 in assay [2] was 0.0268 nM.

B8: Hu23F4-33 (antibody, V domains shown)
VH: B4 VH with M48I, V68A, M70L, R72S
VL: B1 VL
As to B8, the 50% effective concentration (EC50) in assay [2] was 0.0954 nM.

B9: Hu23F4-29 (antibody, V domains shown)
VH: B4 VH with M70L, R72S
VL: B1 VL
As for B9, the EC50 in assay [2] turned out to be 0.0736 nM.

B10: Hu23F4-28 (antibody, V domains shown)
VH: B4 VH with M70L, R72S
VL: B1 VL with A46L
As for B10, in assay [2], the EC50 came to 0.101 nM.

B11: Hu23F4-5 (antibody, V domains shown)
VH: B1 VH with D26G, L29F, I48M, A68V, L70I
VL: B1 VL with A46L
With B11, the EC50 in assay [1] amounted to 0.0585 nM.

B12: Hu23F4-31 (antibody, V domains shown)
VH: B4 VH with M70L, R72S
VL: B1 VL with A43S, S60D, E70D, Y87F
As for B12, in assay [2], the EC50 was determined as 0.0424 nM.

B13: Hu23F4-12 (antibody, V domains shown)
VH: B1 VH with D26G, L29F, I48M
VL: B1 VL with A43S, S60D, E70D, Y87F
For B13, the EC50 in assay [1] amounted to 0.226 nM.

B14: Hu23F4-32 (antibody, V domains shown)
VH: B4 VH with M48I, V68A, M70L, R72S
VL: B1 VL with A46L
B14: the concentration for a half-maximal effect (EC50) in assay [2] stood at 0.0873 nM.

B15: Hu23F4-37 (antibody, V domains shown)
VH: B4 VH with G26D, F29L, M48I, V68A, M70L, R72S
VL: B1 VL
Regarding B15, the EC50 in assay [2] is 0.127 nM.

B16: Hu23F4-27 (antibody, V domains shown)
VH: B4 VH with R72S
VL: B1 VL with A43S, S60D, E70D, Y87F
As to B16, the 50% effective concentration (EC50) in assay [2] came to 0.0384 nM.

B17: Hu23F4-36 (antibody, V domains shown)
VH: B4 VH with G26D, F29L, M48I, V68A, M70L, R72S
VL: B1 VL with A46L
B17: the concentration giving a half-maximal response (EC50) in assay [2] was 0.0384 nM.

B18: Hu23F4-30 (antibody, V domains shown)
VH: B4 VH with M70L, R72S
VL: B1 VL with S60D, E70D
As for B18, the EC50 in assay [2] was 0.0411 nM.

B19: Hu23F4-34 (antibody, V domains shown)
VH: B4 VH with M48I, V68A, M70L, R72S
VL: B1 VL with S60D, E70D
On to B19, for which the 50% effective concentration (EC50) in assay [2] came to 0.0977 nM.

B20: Hu23F4-38 (antibody, V domains shown)
VH: B4 VH with G26D, F29L, M48I, V68A, M70L, R72S
VL: B1 VL with S60D, E70D
Consider B20, for which, in assay [2], the half-maximal effective concentration (EC50) worked out at 0.136 nM.

B21: Hu23F4-16 (antibody, V domains shown)
VH: B1 VH with D26G, L29F
VL: B1 VL with A43S, S60D, E70D, Y87F
Regarding B21, in assay [1], the EC50 is 0.0858 nM.

B22: Hu23F4-10 (antibody, V domains shown)
VH: B1 VH with D26G, L29F, I48M
VL: B1 VL
For the molecule B22, in assay [1], the half-maximal effective concentration (EC50) amounted to 0.116 nM.

B23: Hu23F4-24 (antibody, V domains shown)
VH: B4 VH with R72S
VL: B1 VL with A46L
As for B23, in assay [2], the half-maximal effective concentration (EC50) amounted to 0.0907 nM.

B24: Hu23F4-3 (antibody, V domains shown)
VH: B1 VH with D26G, L29F, I48M, A68V, L70I, S72A
VL: B1 VL with S60D, E70D
B24: the EC50 in assay [1] amounted to 0.0887 nM.

B25: Hu23F4-7 (antibody, V domains shown)
VH: B1 VH with D26G, L29F, I48M, A68V, L70I
VL: B1 VL with S60D, E70D
Turning to B25, the concentration giving a half-maximal response (EC50) in assay [1] was determined as 0.164 nM.

B26: Hu23F4-11 (antibody, V domains shown)
VH: B1 VH with D26G, L29F, I48M
VL: B1 VL with S60D, E70D
As for B26, in assay [1], the concentration for a half-maximal effect (EC50) is 0.0871 nM.

B27: Hu23F4-23 (antibody, V domains shown)
VH: B4 VH
VL: B1 VL with A43S, S60D, E70D, Y87F
Regarding B27, the 50% effective concentration (EC50) in assay [2] stood at 0.047 nM.

B28: Hu23F4-1 (antibody, V domains shown)
VH: B1 VH with D26G, L29F, I48M, A68V, L70I, S72A
VL: B1 VL with A46L
On to B28, for which the 50% effective concentration (EC50) in assay [1] amounted to 0.11 nM.

B29: Hu23F4-20 (antibody, V domains shown)
VH: B4 VH
VL: B1 VL with A46L
Take B29: the 50% effective concentration (EC50) in assay [1] amounted to 0.0993 nM.

B30: Hu23F4-35 (antibody, V domains shown)
VH: B4 VH with M48I, V68A, M70L, R72S
VL: B1 VL with A43S, S60D, E70D, Y87F
As to B30, the EC50 in assay [2] was found to be 0.0624 nM.

B31: Hu23F4-15 (antibody, V domains shown)
VH: B1 VH with D26G, L29F
VL: B1 VL with S60D, E70D
Consider B31, for which the EC50 in assay [1] turned out to be 0.171 nM.

B32: Hu23F4-6 (antibody, V domains shown)
VH: B1 VH with D26G, L29F, I48M, A68V, L70I
VL: B1 VL
As to B32, the EC50 in assay [1] came out at 0.0196 nM.

B33: Hu23F4-2 (antibody, V domains shown)
VH: B1 VH with D26G, L29F, I48M, A68V, L70I, S72A
VL: B1 VL
As for B33, the EC50 in assay [1] was determined as 0.158 nM.

B34: Hu23F4-9 (antibody, V domains shown)
VH: B1 VH with D26G, L29F, I48M
VL: B1 VL with A46L
For B34, the concentration giving a half-maximal response (EC50) in assay [1] amounted to 0.0516 nM.

B35: Hu23F4-13 (antibody, V domains shown)
VH: B1 VH with D26G, L29F
VL: B1 VL with A46L
Consider B35, for which the EC50 in assay [1] is 0.0852 nM.

B36: Hu23F4-26 (antibody, V domains shown)
VH: B4 VH with R72S
VL: B1 VL with S60D, E70D
As for B36, the EC50 in assay [2] was found to be 0.0348 nM.

B37: Hu23F4-17 (antibody, V domains shown)
VH: B1 VH
VL: B1 VL with A46L
With B37, the EC50 in assay [1] stood at 0.102 nM.

B38: Hu23F4-14 (antibody, V domains shown)
VH: B1 VH with D26G, L29F
VL: B1 VL
For the molecule B38, the concentration for a half-maximal effect (EC50) in assay [1] amounted to 0.0508 nM.

B39: 23F4 chimera (antibody, V domains shown)
VH: QVQLQQSGPELVKPGTSMKISCKTSDYTLTSHYLHWVKQRPGQGLEWIGWIFPGDDKTKYNEKFKGKATLTSDKTSNTAYMQLSSLTSEESAVYFCARGTKYLNWNFDVWGTGTTVTVSS
VL: DIVLTQPQKFLSTSVGDRVSVTCKANQNVGTTLAWYQQKPGQSPKALIYSASYRYSGVPDRFTGSGSGTDFTLTISNVQSEDLAEYFCHQYTTYPLTFGGGTKLEIK
In the case of B39, the EC50 is 0.092 nM and 0.0881 nM in assay [2]; 0.081 nM and 0.0923 nM in assay [1].
